The record followed here is US20140037661A1, “Wheat Antigens and Peptides for Diagnosis of Wheat Induced Hypersensitivity” (PHADIA AB, priority 2011, published 2014).

Common to all, as to assay type: binding, human
Assay [1] relates to serum-IgA from CD patients. Nature of the assay: IgA reactivity ELISA to synthetic GG1 peptides. Particulars: 5 μg/ml coated; n=8 CD, 2 CD on gluten free diet, 3 healthy controls; FIG. 16. On the procedure: ELISA plates were coated with 100 ul of 5 μg/ml of the 19 overlapping peptides, rGG1, alpha-gliadin peptide p56-75 and deamidated alpha gliadin peptide p56-75 (Q65E) and probed with serum-IgA from CD patients, CD patients on gluten free diet and healthy controls and detected using mouse anti-human IgA1/A2 and sheep anti-mouse IgG-HRP labelled antibody. Human serum albumin (HSA) was used as control (n=8 CD patients, 2 CD patients on gluten free diet and 3 healthy controls). […] Each of the synthetic GG1 peptides no.
On the technique in general: ELISA stands for enzyme-linked immunosorbent assay.

Assay [2] has as its system serum IgA of celiac disease patients. Description: IgA reactivity ELISA to wheat food antigens. The note with it: 5 μg/ml coated, sera 1:100, read at 405 nm, FIG. 15. On the procedure: 100 μl of the wheat proteins GG1 (Gamma gliadin 1), GG2 (Gamma gliadin 2), α-purothionin, GluB3-23, C-175, Mal 82 and Mal 43 of a concentration of 5 μg/ml were coated overnight at 4° C. onto Nunc Maxisorp Elisa plates. The remaining free binding sites were blocked with 1% BSA in PBST for 2 hours at room temperature. 100 μl of sera from celiac disease patients, celiac patients on diet and negative controls were added at a dilution of 1:100 in 0.5% BSA in PBST buffer and incubated for 12 hours at 4° C. The plates were washed 5 times in PBST buffer and 100 μl of mouse anti-human IgA1/A2 (BD Biosciences) diluted to 1:1000 in 0.5% BSA/PBST buffer was added and incubated at room temperature for 5 hours. The plates were then washed 5 times with PBST and 100 μl of sheep anti-mouse IgG conjugated with Horse radish peroxidise (HRP) (Amersham) antibodies were added and incubated at 37° C. for one hour.

The subject of assay [3] is serum IgA from Dermatitis herpetiformis (DH) patients. Description: Dermatitis herpetiformis serum IgA reactivity ELISA. Particulars: 5 μg/ml coated; n=12 DH patients, 2 healthy controls; FIG. 18. How it is done: ELISA plates were coated with 100 μl of 5 μg/ml rGamma gliadin 1, rGamma gliadin 2, α-gliadin peptide p56-75 (α-gli peptide), deamidated α-gliadin peptide (D) and Human serum albumin. The bound proteins were probed with sera from Dermatitis herpetiformis (DH) patients and healthy controls. IgA reactivity to the proteins was detected using mouse anti-human IgA1/A2 and sheep anti-mouse IgG-HRP labelled antibody. (n=12 DH patients and 2 healthy controls).

For the molecule “QVMRQQCCQQLAQIPQQLQCA (listed as Triticum aestivum) [compound 13]”, the “IgA reactivity of celiac disease patients' serum” value in assay [1] is “specific IgA reactivity”.

B1: GG2: recombinant gamma gliadin 2 with 6×Histidine at the C terminal end, expressed in E. coli (protein)
chain: MNIQVDPSSQVQWPQQQPVPQPHQPFSQQPQQTFPQPQQTFPHQPQQQFPQPQQPQQQFLQPQQPFPQQPQQPYPQQPQQPFPQTQQPQQLFPQSQQPQQQFSQPQQQFPQPQQPQQSFPQQQPPFIQPSLQQQVNPCKNFLLQQCKPVSLVSSLWSMIWPQSDCQVMRQQSCQQLAQIPQQLQCAAIHTVIHSIIMQQEQQQGMHILLPLYQQQQVGQGTLVQGQGIIQPQQPAQLEAIRSLVLQTLPTMCNVYVPPECSIIKAPFSSVVAGIGGQYRHHHHHH
For B1, in assay [2], the IgA reactivity result is on record as “high”. The “IgA reactivity, DH patients versus healthy controls” value in assay [3] was “higher IgA reactivity to sera from DH patients than to healthy controls”.
